Reference: patent US20110165265A1 (FUNDACI GEN MICA CRG, published 2011)
Numbering of substitutions follows the chain as printed. Numbers in names are those of the source.

B1: DcR2-Ig receptor chimera (R&D Systems) (Fc fusion, UniProt Q9UBN6 56-211, looked up, not shown: a dimerising Fc or GST)
chain: ATIPRQDEVPQQTVAPQQQRRSLKEEECPAGSHRSEYTGACNPCTEGVDYTIASNNLPSCLLCTVCKSGQTNKSSCTTTRDTVCQCEKGSFQDKNSPEMCRTCRTGCPRGMVKVSNCTPRSDIKCKNESAASSTGKTPAAEETVTTILGMLASPYH
B2: DcR1-Ig receptor chimera (R&D Systems) (Fc fusion, UniProt O14798 26-221, looked up, not shown: a dimerising Fc or GST)
chain: ATTARQEEVPQQTVAPQQQRHSFKGEECPAGSHRSEHTGACNPCTEGVDYTNASNNEPSCFPCTVCKSDQKHKSSCTMTRDTVCQCKEGTFRNENSPEMCRKCSRCPSGEVQVSNCTSWDDIQCVEEFGANATVETPAAEETMNTSPGTPAPAAEETMNTSPGTPAPAAEETMTTSPGTPAPAAEETMTTSPGTPA
B3: TRAIL variant D269H (114-281) (ligand)
chain: MVRERGPQRVAAHITGTRGRSNTLSSPNSKNEKALGRKINSWESSRSGHSFLSNLHLRNGELVIHEKGFYYIYSQTYFRFQEEIKENTKNDKQMVQYIYKYTSYPDPILLMKSARNSCWSKDAEYGLYSIYQGGIFELKENDRIFVSVTNEHLIDMHHEASFFGAFLVG
notes: All mutants are said to be of the length 114-281; also called rhTRAIL carrying mutation D269H; DR5-selective variant
B4: TRAIL variant D269HE195R (114-281) (ligand)
chain: B3 chain with E83R
notes: All mutants are said to be of the length 114-281; also called TRAIL-DR5; DE

Tests used:
[1] = target: B3; test: cell-based or functional assay
[2] = target: B4; test: cell-based or functional assay
[3] = target: wild-type TRAIL (recombinant human soluble TRAIL, amino acids 114-281) (human, UniProt P50591 114-281); test: cell-based or functional assay
[4] = target: B2; test: SPR (Biacore 3000, 37 °C), DcR1-Ig captured on protein A, pre-steady state
[5] = target: B1; test: SPR (Biacore), DcR2-Ig captured on a protein A-modified CM5 chip, response in RU against ligand concentration (pre-steady state)
DR5-Ig = target: T1, DR5-Ig (UniProt O14763 54-182); test: not stated there (SPR by the context of paragraph 339)
T1 construct: also called sDR5; soluble recombinant DR5-Ig; not shown: Ig (Fc) part

[6] = target: death receptor 5 (DR5) on the cell surface (human, UniProt O14763 56-440); test: cell-based or functional assay

Sequence of wild-type TRAIL (recombinant human soluble TRAIL, amino acids 114-281) (P50591 114-281 limits assumed): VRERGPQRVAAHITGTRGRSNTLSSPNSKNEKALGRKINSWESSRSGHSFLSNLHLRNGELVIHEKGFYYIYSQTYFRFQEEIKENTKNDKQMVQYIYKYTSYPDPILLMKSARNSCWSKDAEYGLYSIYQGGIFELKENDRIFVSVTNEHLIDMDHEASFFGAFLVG

block of ligand-induced apoptosis of Colo205 cells (Annexin V) after pre-incubation of the ligand with soluble receptor [1]	block of ligand-induced apoptosis of Colo205 cells (Annexin V) after pre-incubation of the ligand with soluble receptor [2] [µg/mL]	block of ligand-induced apoptosis of Colo205 cells (Annexin V) after pre-incubation of the ligand with soluble receptor [3] [µg/mL]	fold reduction of binding compared to wtTRAIL [4] [fold]	binding result [5]	fold increase in kon compared to wtTRAIL (DR5-Ig) [fold]	Binder	rate of receptor activation relative to wtTRAIL [6] [fold]
2 fold	–	–	–	–	–	B1	–
> 2 µg/mL	> 2	0.5	–	–	–	B2	–
–	–	–	~20	binds	–	B3	–
–	–	–	~20	binds	< 5	B4	17
